Test results reported in publication PMC12260427.
Where two headings read alike, the source gives them in different places.

Key:
[1] = molecular target: T1, alpha-thrombin (Homo sapiens, UniProt P00734;P00734 328-363;364-622); assay: ITC
[2] = molecular target: T1, alpha-thrombin; assay: ITC; remark: listed apart in the source
[3] = molecular target: T1, alpha-thrombin; assay: ITC; remark: listed apart in the source
[4] = molecular target: T1, alpha-thrombin; assay: EMSA
[5] = molecular target: T1, alpha-thrombin; assay: native MS

B1: ss(ATTCC)18 (structured_DNA)
DNA: ATTCCATTCCATTCCATTCCATTCCATTCCATTCCATTCCATTCCATTCCATTCCATTCCATTCCATTCCATTCCATTCCATTCCATTCC
Kd [1]: 746 nM
Kd [2]: 174 nM
Kd [3]: 1460 nM

B2: ss(GGAAT)18 (ssDNA)
DNA: GGAATGGAATGGAATGGAATGGAATGGAATGGAATGGAATGGAATGGAATGGAATGGAATGGAATGGAATGGAATGGAATGGAATGGAAT
binding result [4]: no binding

B3: ss(ATTCG)18 (ssDNA)
DNA: ATTCGATTCGATTCGATTCGATTCGATTCGATTCGATTCGATTCGATTCGATTCGATTCGATTCGATTCGATTCGATTCGATTCGATTCG
binding result [5]: no binding
